The record followed here is patent publication US20240352105A1, “COMPOSITIONS AND METHODS FOR NEUTRALIZING ANTIGENS” (PACAGEN, INC, priority 2023, published 2024).

“And” between values parts separate entries of the source, which are not always exact repeats. Identical values can stand only once.

Assay [1] concerns the target recombinant His-tagged Can f1 (dog (Canis familiaris)) (UniProt O18873). In words: serum ELISA, 1:32k, Alpaca 1 block. Background: An ELISA detects its analyte on a solid surface through an enzyme-linked reagent.
The target of assay [2] is recombinant His-tagged Can f2 (dog (Canis familiaris)) (UniProt O18874). In words: serum ELISA, 1:32k, Alpaca 1 block.
Assay [3] addresses T1, recombinant His-tagged Der p2 (dust mite, UniProt P49278 18-146).
T1 construct: also called Der p2-His; Der p2-HIS; not shown: His tag
T1 sequence (looked up): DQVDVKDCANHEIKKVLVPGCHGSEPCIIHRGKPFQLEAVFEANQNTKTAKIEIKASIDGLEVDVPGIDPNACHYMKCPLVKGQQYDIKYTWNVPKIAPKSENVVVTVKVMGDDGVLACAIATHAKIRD
In words: serum ELISA, 1:32k, Alpaca 1 block.

The target in assay [4] is Can f2-sumo-His (dog (Canis familiaris)) (UniProt O18874). In words: serum ELISA, 1:32k, Alpaca 1 block.
Assay [5] deals with recombinant His-tagged Can f1 (dog (Canis familiaris)) (UniProt O18873). In words: serum ELISA, 1:1K, Alpaca 2 block.
In assay [6] the target is recombinant His-tagged Can f2 (dog (Canis familiaris)) (UniProt O18874). In words: serum ELISA, 1:1K, Alpaca 2 block.
In assay [7] the target is T1, recombinant His-tagged Der p2. In words: serum ELISA, 1:1K, Alpaca 2 block.
For assay [8], the target named is Can f2-sumo-His (dog (Canis familiaris)) (UniProt O18874). In words: serum ELISA, 1:1K, Alpaca 2 block.
In assay [9] the target is recombinant His-tagged Can f1 (dog (Canis familiaris)) (UniProt O18873). In words: serum ELISA, 1:32k, Alpaca 2 block.
Assay [10] concerns the target recombinant His-tagged Can f2 (dog (Canis familiaris)) (UniProt O18874). In words: serum ELISA, 1:32k, Alpaca 2 block.
Assay [11] has as its target T1, recombinant His-tagged Der p2. In words: serum ELISA, 1:32k, Alpaca 2 block.
In assay [12] the target is Can f2-sumo-His (dog (Canis familiaris)) (UniProt O18874). In words: serum ELISA, 1:32k, Alpaca 2 block.
In assay [13] the target is recombinant His-tagged Can f2 (dog (Canis familiaris)) (UniProt O18874). In words: serum ELISA, 1:8K, Alpaca 1 block.
In assay [14] the target is recombinant His-tagged Can f1 (dog (Canis familiaris)) (UniProt O18873). In words: serum ELISA, 1:64K, Alpaca 1 block.
Assay [15] has as its target recombinant His-tagged Can f2 (dog (Canis familiaris)) (UniProt O18874). In words: serum ELISA, 1:64K, Alpaca 1 block.
Assay [16] addresses T1, recombinant His-tagged Der p2. In words: serum ELISA, 1:64K, Alpaca 1 block.
Assay [17] concerns the target Can f2-sumo-His (dog (Canis familiaris)) (UniProt O18874). In words: serum ELISA, 1:64K, Alpaca 1 block.

Can f2-sumo-His (dog (Canis familiaris)), sequence (O18874 19-180): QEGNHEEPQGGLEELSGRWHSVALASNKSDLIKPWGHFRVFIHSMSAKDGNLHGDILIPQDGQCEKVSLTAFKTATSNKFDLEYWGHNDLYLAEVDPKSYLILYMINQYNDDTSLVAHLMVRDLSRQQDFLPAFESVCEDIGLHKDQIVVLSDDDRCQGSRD
recombinant His-tagged Can f2 (dog (Canis familiaris)), sequence (O18874 19-180 limits assumed): as the sequence (O18874 19-180) above
recombinant His-tagged Can f1 (dog (Canis familiaris)), sequence (O18873 19-174 limits assumed): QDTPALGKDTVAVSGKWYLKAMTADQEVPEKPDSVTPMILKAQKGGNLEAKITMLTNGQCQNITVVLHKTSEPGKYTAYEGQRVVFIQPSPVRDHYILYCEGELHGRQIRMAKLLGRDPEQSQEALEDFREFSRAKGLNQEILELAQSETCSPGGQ

With Negative serum taken from naïve alpacas, the OD at 450 nm in assay [1] is 0.102 OD and 0.107 OD; in assay [2] it was 0.069 OD and 0.062 OD; in assay [3], 0.099 OD and 0.081 OD; in assay [4] it was 0.056 OD and 0.057 OD; in assay [5], 0.228 OD and 0.218 OD; in [6] it was 0.227 OD and 0.241 OD. In addition, the OD at 450 nm in [7] is 0.201 OD and 0.19 OD; in [8] it was 0.186 OD and 0.181 OD; in assay [9] it was 0.091 OD and 0.093 OD; in assay [10], 0.075 OD and 0.068 OD; in assay [11], 0.082 OD; in assay [12], 0.071 OD and 0.061 OD. Also, the OD at 450 nm is 0.076 OD in assay [13]; 0.103 OD in assay [14]; 0.064 OD and 0.069 OD in [15]; 0.085 OD and 0.081 OD in assay [16]; 0.057 OD and 0.058 OD in assay [17].
